Reference: the nanobody polyreactivity screen of Harvey et al. (2022)

Assay: yeast display, Sf9 membrane polyspecificity reagent, FACS + sequencing; frameworks hold sequencing errors
Summary of the method: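 A nanobody's polyreactivity label depends on the gate it was sorted from. Yeast display cells were stained with 10% biotinylated, detergent-solubilized Sf9 membrane reagent for 1 hour at 4 °C, enriched on streptavidin microbeads and sorted by FACS. The low and high (top ~1%) gates were set on anti-HA fluorescence for expression and streptavidin fluorescence for reagent binding.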

Sequence | polyreactivity (PSR sort gate)
QVQLVESGGGLVQAGGSLRLSCAASGRTFQRYAMVWYRQAPGKERELVPAITSRGGSTYYSDSVKGRFTISRDNAKNTVYLQMNSLKPEDTAVYYCNARSRRTLSEPQSEMDYWGQGTQVTVSS | high polyreactivity
QVQLVESGGGLVQAGGSLRLSCAASGSTFSTYAMGWYRQAPGKERELVARITRSDTGTYYADSVKGRFTISRDNAKNTVYLQMNSLKPEDTAVYYCAADGWYDDSGWYYGYDYWGQGTQVTVSS | low polyreactivity
QVQLVESGGGLVQAGGSLRLSCAASGRIFYSYAMGWYRQAPGKEREFVAAISYSGGSTYYADSVKGRFTISRDNAKNTVFLQMNSLKPEDTAVYYCAAKVKFYTYYYWGQGTQVTVSS | high polyreactivity
QVQLVESGGGLVQPGGSLRLSCAASGFIFSYYAMGWYRQAPGKERELVAAITQSGGGTYYADSVKGRFTISRDNAKNTVYLQMNSLKPEDTAVYYCAVLYYQTRQVYSGYSRYWLYSSRYDYWGQGTQVTVSS | high polyreactivity
QVQLEESGGGLDQAGGSLRLSCAASGSTFYKNAMGWYRQAPGKERELVARISGRGGSTDYADSVKGRFTISRDNAKNTVYLQMNSLKPDDTAVYYCNAGKYSSSDALYDYWGQGTQVTVSS | high polyreactivity
QVQLVESGGGIVQAGGSLRLSCAASGRTSWYYAMGWYRQAPGKERELVAAITASGGSTYADSVKGRFTISRDNAKTSVYLQMNRLKPEDSAVYYCAAERPYSRVGYYYWGQGTQVTVSS | high polyreactivity
QVQLVESGGGLVQEGGSLRFSCAASGFTFDHYAMGWNRQAPGKERELVAVITKSGDSTYYADSVKGRFTISRDNAKNTVYLQMNSQKPEDPAVYYCNARRDYDMDWGQGTQVTVSS | high polyreactivity
QVHLVESGGGLVQAGGSLRLSCAAAGSTSARYAMGWYRQPPGKERELVATITRSGTTKYADSVKGRFTISRDNAKNTVYLQMNSLKPEDTAVYYCNTDTYFPLYDYWGQGTQVTVSS | low polyreactivity
QVQLVESVGGLVQAGGSLRLSCAASGRTFWWYTMGWYRQAPGKERELVAVISSTGGRTYYADSVKGSFTISRDNAKNTVYLQMNSLKPEDTAVYYCAAEYVSAKWEYGYWGQGTQVTVSS | low polyreactivity
QVQLVESGGGLVQAGGSLRLSCAASGSTFGYYTMGWYRQAPGKERELVAAITGGGTTYYADSVKGRFTISRDNAKNTVYLQMNSLKPEDYAVYYCAAQARYYWGTTYEYWGQGTQVTVSS | high polyreactivity
QVQIVESGGGLVQAGGSLRLSCAASGITFTVYAMGWYRQAPGKVRELVAAINSGSSTNYADSVKGRFTISRDNAKNTVYLQMNSLNPEDTAVYYCAASYRKLPDKKRYGYWGQGTQVTVSS | high polyreactivity
QVQHVESGGGLVQAGGSLRLSCAASGSTFSLYAMGWSRQAPGKERELVAAIRGSGGSPYYADSVKGRFTISRDNAKNTVYLQMNTQTPEDSAVYYCAKKRYHGSNYGYDYWGQGTQVTVSS | high polyreactivity
QFQLVESGGGLVQAGGSLRLSCAASGRIFFSNAMGWYRQAPGKERELVASITGGDDTNYADSVKGRFTISRDNAKNSVYLQMNSLKPEDTAFYYCAARAIPSYRWVYRFAPKYDYWGQGTQVTVSS | low polyreactivity
QVKLVESGGRLVQAGGILRLSSPASGFIFRGYARGWYRQAPGKERELVAAINSGGSTNYADSVKGRFTISRDNAKNTVYLQMIRLKPEETAVYYCAARVKTSYRYLRTYNYWGLGTQVTVSS | high polyreactivity
QVQLVESGGGLVQAGGSLRLSCAPSGSTFLSYVMGWYRQAPGKERELVAAITGTGGRTYYADSVKGRFTISRDNAKNTVYLQMNCLKTEDTAVYYCTAYRNHGYDYWGQGTQVTVSS | high polyreactivity
QVQLVESGGGLVQAGGSLRLSCAASGLIFRHYVMGWYRQAPGKERELVAAITSRGGTTYYADSVKGRFTISRDNAKNTVYLQMNSLKPEDTAVYYCATVHSYTIQRYDYWGQGTQVTVSS | high polyreactivity
QVQLVESGGGLVQAGRSLRLTCAASGSIFYYYAMGWYRQAPGNERELVAAISSGGRTYYADSVKGRFTISRENANNNVYLQMKSLKTEDTAVYYCAASGGSYSVGRYYYWGQGSQVTVSS | high polyreactivity
QVQLVESGGGLVQAGGSLRLSCAASGRIFKYYAMGWYRPAPWKKRELVATISVSGGRTYYADSVKGRFTISRDNAKNTVYLQMNSLKPEDTAVYYCAAYSVIRRRVEYGYWGQGTQVTVSS | high polyreactivity
QVQLVESGGGLVQAGGSLRLSCAASGSTFGIYAMGWYRPAPGKERELVAAISSGGSTNYADSVKGRFTISRDNAKNTVYLQMNCLKPEDSAVYYCAVESVYEYGGYVDSAYDYWGQGTQVTVSS | low polyreactivity
QVQLVESGGGLVQAGGSLRLSCAASGRTFWYYTMGWYRQAPGKERELVAGITGTGGSTYYADSVKGRFTISRDNAKNTVYLQMNSLKPEDTAVYYCNALRRSQRYWDPYGYDYWGQGTQVTVSS | high polyreactivity
QVELEESGGGLVQAGGSLRLSCAASGFIFRYYALGWYRPGPGTVRELVAVISSSGSTHYADSVKGRITISRDNAKNTVYLQMNSLKPEDTAVYYCAADGNVWSGPRYDYWGQGTQLTVSS | low polyreactivity
HVQLVDSGGGLVQAGGSLRLTCAASGNIFVPYAMGWYRQAPGKERELVAAINGGGSTNYADSLKGRFTISRDNAKNTVYLQMNSLKPEDTAVYYCAAVWYFLSLWYDYWGQGTQVTVSS | high polyreactivity

Sequence | polyreactivity (PSR sort gate)
QVQLVESGGGLVQAGGSLRLSCAASGRTISSYAMGWSRQAPGKERELVAAISRSGGNTYYPDSVKGRFTISRDHAKNTVYLQMNSLKPEDTAVYYCNARGRTGFQADKFGYWGQGTQVTVSS | high polyreactivity
QVHLVESGGGLVQAGGSLRLSCAASGRSFRRNARGWYRQAPGKERELVATISSGGTTKYADSVKGRFTISRDNAKYTVYLQMNNLKPEDTAVYYCNADLNRRTYGPDSYYWGQGNQVTVSS | high polyreactivity
QVQLVESGGGLVQAGGSLRLSCAASGRTLYKYAMGWYRQAPGKERELVAAISRNGGSTYYADSVKGRFTISRDNAKNTVYLQMNSLKPEDTAVYYCNKRWGYQYLWVADYDYWGQGTQVTVSS | high polyreactivity
QVQLVESGGGLVQAGGSLRLSCDASGSTFVRYVMRWYRHAPGKEMELVAAISRRGGSTYYADSVKGRFTISRDNAKNTVYLQMNSLKPEDTAVYYCARTVCYRTLLESDSCGQGTQVTVSS | high polyreactivity
QVQLVESGGGLVQAGGSLRLSCAASGSIFAYYAMGWYRQPPGKERELVAAISYSVDGTYYADSVKGRFTISRDNAYNTVYLQMNSLKPEDTAVYYCATQIYPLDFYQGDWNDYWGQGTQVTVSS | low polyreactivity
QVQLVESGGGLVQAGGSLRLSCAASGIIFTGYAMGWYRQAPGKERELVAAISDTGGSTYYADSVKGRFTISRDNAKNTVYLQMNSLKPEDTAVYYCAADWWSRYYYWGQGTQVTVSS | high polyreactivity
QVQLVESGGGLVQAGGSLRLSCAASGFIFNRYAMGWYRQAPGKERELVAAISFSGGSTYYADSVKGRFTISRDNAKNTVYLQMNSLKPEDTAVYYCAASWYRYGYWGQGTQVTVSS | high polyreactivity
QVQLVESGGGLVQAGGSLRLSCAASGNIFVRYAMGWYRQAPGKEREFVAAISSSGGSTRYADSVKGRFTISRDNAKNTVYLQMNSLKPEDTAVYYCAATRVARHGSPMYYWGQGTQVTVSS | high polyreactivity
QVQLVESGGGLVQAGGSLRLSCAASGSIFSVYAMGWYRQAPGKERELVAAITSGTSTYADSVKGRFTISRDNAKNTVYLQMNSLKPEDTAVYYCAAESGSPGYYYWGQGTQVTVSS | low polyreactivity
QEQLQESGVGLVQAGGSLRLICEASGSISQAWYMGWYRQAPGKERELVAAINVGAITYYADSVKGRFSISRDNAKNTVYLPMNSLTPDDTAVYYCAVDQYSEAYYDYWGQGTQATVSS | high polyreactivity
QVQLVESGGGLVQAGGSLRLSCAASGRTFNRYAMGWYRQAPGKERELVAAINWSGGSTYYADSVKARFTISRDIAKTTVYLPMNSLKPEDTAVYYCAADVWGWGLRPYDYWGQGTQVTVSS | low polyreactivity
QDQLVESGGGLVQAGGSLRLSCAASGFTFTWNAMGWYRQAPGKERELVAGITRGGSTNYADSVKGRFTISRDNAKNTVYLQMNSLKPEDTAVYYCNVSFYFHHAGYDYWGQGTQVTVSS | low polyreactivity
QVQLVESGGGLVQAGGSLRLSCAASGSIFWSYAMGWYRQAPGKEREFVAAIRGRGGNTYADSVKGRFTISRDNAKNTVYLQMNSLKPEDTAVYYCAAPLLRDLRSPYSYNYWGQGTQVTVSS | low polyreactivity
QVQLVESGGGLVQAGGSLRLSCAASGSNFDYYAMGWYRQAPGKERELVAAIRVSGGSTYYADSVKGRFTISRDNAKNTVYLQMNSLKPEDTAVCYCASSYYDFNYEYYYWGQGTQVTVSS | high polyreactivity
QVQLVESGGGLVQAGGSLRLSCAASGLTFGRNAMGWYRQAPGKERELVAAITFNGGSTYYADSVKGRFTISRDNAKNTVYIQMNSLKPEDTAVYYCAAPYYVYWTYPYRVLSYYYWGQGTQVTVSS | high polyreactivity
QVQLVESGGGLVQAGGSLRLSCAASGSTFYRNAMGWYRQAPGKERELVAGISRRGGSTYYADSVKGRFTISRDNAKNSVYLQMNSLKPEDTAVYYCAADVRSGGVAYGYGYWGQGTQVTVSS | high polyreactivity
QVHLVESAGGLVQAAASLRLTCSASGNTLGSYAMGWYIQAPGKETKFVATISKRGGSTYYADSVKGRFTISRDNAKNTVYFQMNSLKPEDSAVYYCAAEDEYYGGDEYWGQGTQVTVSS | high polyreactivity
QVQLVESGGGLVQAGGSLRLSCAASGRTLYLNAMRWNRQPQRKERELVAISSGGSTYYADSVKGRFTISRDNAKNTVYLQMNSLKPEDTAVYYCNADEHYHFGYVFWYAYDYWGQGTQVTVSS | low polyreactivity
QVQLVESGGGLVQAGGSLRLSCAASGYTFYYNAMGWYRQATGKERELVAAISWSTSGTYYADSVKGRFTISRDNAKNTVYLQMYSLKPEYTAVYYCAAPSSGTITYDYWGQGTQVTVSS | low polyreactivity
QVQLEESGGGLGQAGGSLRLSCAASGSIFAYYAMGWYRQAPGKERELVAAISWGGGNTYYADSVKGRFTISRDNAKNNVYLQMNSLKPEDTAVYYCAAEDYYYYGVAYGYWGQGSQVTVSS | high polyreactivity
QVQLLESGGGLVQAGGSLRLSFAASGYIFSVNAMGWYRQAPGQERELVATIRTDGTTNYADSVNGRFTISRDNAKNTVYLKMNSLKPEDTAVYYCATDSGWSTYDYWGQGTQVTVSS | high polyreactivity
